The source of these data is patent publication US8524227B2, “Anti-IL-TIF antibodies” (ZymoGenetics, Inc., priority 2002, dated 2013).

Data set [1] is described as follows: IL-TIF-induced acanthosis, subcutaneous mini-osmotic pump. To be noted: for Average Acanthosis: score 0-4. The class given is in vivo, mice. As to the method: Mice (female, C3H/HEJ, 8 weeks old; Jackson Labs, Bar Harbor, Me.) were divided into three groups of six animals and one group of 4. Human BHK-produced IL-TIF was administered by constant infusion via mini-osmotic pumps, resulting in local and steady state serum concentrations proportional to the concentration of the IL-TIF contained in the pump. Alzet mini-osmotic pumps (model 2002; Alza corporation Palo Alto, Calif.) were loaded under sterile conditions with IL-TIF protein (A601F, 0.22 mL) diluted in phosphate buffered saline (pH 7.0) to a concentration within the pump of 2 mg/mL for group 1 mice, 0.2 mg/mL for group 2 mice, 0.02 mg/mL for group 3 mice, or 0 mg/mL (diluent only) for group 4 mice. Pumps were implanted subcutaneously in mice through a 1 cm incision in the dorsal skin, and the skin was closed with sterile wound closures. These pumps are designed to deliver their contents at a rate of 0.5 μl per hour over a period of 14 days. Using this nominal rate of infusion, dose levels were calculated to be 24 μg/day, 2.4 μg/day, 0.24 μg/day and 0 μg/day for groups 1-4, respectively.
At the end of the 14-day period, the mice were euthanized and an approximately 1 cm square sample of skin surrounding the pump area was collected from each mouse. The skin was fixed in 10% neutral buffered formalin. Formalin fixed samples of skin were embedded in paraffin, routinely processed, sectioned at 5 um and stained with hematoxylin and eosin. The tissues were microscopically examined in blinded fashion by an ACVP board certified veterinary pathologist. […] In addition, the skin of selected groups was imaged with a CoolSnap digital camera (Roper Scientific, Inc., San Diego, Calif.) and epidermal thickness measured using histomorphometry software (Scion Image for Windows, v. 4.02, Scion Corp., Frederick, Md.).

For another data set, the target named is T1, IL-TIF (Homo sapiens, UniProt Q9GZX6).
T1 construct: made in house; host or cells: BHK cells
T1 sequence (Q9GZX6 34-179): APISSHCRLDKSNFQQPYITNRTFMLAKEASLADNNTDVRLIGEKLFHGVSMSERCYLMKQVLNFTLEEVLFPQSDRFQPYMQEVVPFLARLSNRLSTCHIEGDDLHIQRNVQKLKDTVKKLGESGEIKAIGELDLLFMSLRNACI
Kind of data set: Effect of zcytor16 on IL-TIF-induced acanthosis. The class given is in vivo, mice. To be noted: for Average Acanthosis: day 8, score 0-3. As to the method: Mice (female, C3H/HEJ, 8 weeks old; Jackson Labs, Bar Harbor, Me.) were divided into eight groups of eight animals each. IL-TIF was administered by constant infusion via mini-osmotic pumps, as described in example 32a. Alzet mini-osmotic pumps (model 2001; Alza corporation Palo Alto, Calif.) were loaded under sterile conditions with IL-TIF protein (A#601F, 0.22 mL) diluted in phosphate buffered saline (pH 7.0) to a concentration within the pump of 0.22 mg/mL for group 1-2 mice, 0.45 mg/mL for group 3-4 mice, 0.9 mg/mL for group 5-6 mice, or 0 mg/mL (diluent only) for group 7-8 mice. These pumps are designed to deliver their contents at a rate of 0.5 μl per hour over a period of 14 days. Using this nominal rate of infusion, dose levels were calculated to be […] and 0 μg/day for groups 7-8. For each pair of groups at a given dose level of IL-TIF, one of the groups was injected three times (days 1, 3, and 5) with 0.1 mg of human zcytor16 Fc protein (described herein) by the interperitoneal route. The other group was injected in the same fashion with vehicle (PBS).
On day 8 of the study, mice were euthanized and an approximately 1 cm square sample of skin surrounding the pump area was collected from each mouse. The skin was fixed in 10% neutral buffered formalin. Formalin fixed samples of skin were embedded in paraffin, routinely processed, sectioned at 5 um and stained with hematoxylin and eosin. The tissues were microscopically examined in blinded fashion by an ACVP board certified veterinary pathologist. This study was scored in a different manner than the previous example. The number of layers in the epidermis, from stratum basalis to stratum granulosum, was determined Based on the results, the sections were scored as follows: O-normal (2-3 layers), 1-mild thickening (3-4 layers), 2-moderate thickening (4-6 layers) and 3-severe thickening (>6 layers).

The next data set relates to K-562 cells. Briefly: K-562 cytotoxicity assay (MTT). The class given is cell-based, human. To be noted: 72 h. Here is the method:
The K-562 cell line (CRL-243, ATCC) has attained widespread use as a highly sensitive in vitro target for cytotoxicity assays. K-562 blasts are multipotential, hematopoietic malignant cells that spontaneously differentiate into recognizable progenitors of the erythrocytic, granulocytic and monocytic series (Lozzio, B B et al., Proc. Soc. Exp. Biol. Med. 166: 546-550, 1981).
K562 cells were plated at 5,000 cells/well in 96-well tissue culture clusters (Costar) in DMEM phenol-free growth medium (Life Technologies) supplemented with pyruvate and 10% serum (HyClone). Next day, human recombinant IL-TIF (Example 19), BSA control or retinoic acid (known to be cytotoxic to K562 cells) were added. Seventy-two hours later, the vital stain MTT (Sigma, St Louis, Mo.), a widely used indicator of mitochondrial activity and cell growth, was added to the cells at a final concentration of 0.5 mg/ml. MTT is converted to a purple formazan derivative by mitochondrial dehydrogenases. Four hours later, converted MTT was solubilized by adding an equal volume of acidic isopropanol (0.04N HCl in absolute isopropanol) to the wells. Absorbance was measured at 570 nm, with background subtraction at 650 nm. In this experimental setting, absorbance reflects cell viability. Results shown in Table 7 are expressed as % cytotoxicity.

B1: IL-TIF: pro-inflammatory cytokine polypeptide, SEQ ID NO:3; also designated IL-22 (protein, listed as Homo sapiens)
chain: MGTLATSCLLLLALLVQGGAAAPISSHCRLDKSNFQQPYITNRTFMLAKEASLADNNTDVRLIGEKLFHGVSMSERCYLMKQVLNFTLEEVLFPQSDRFQPYMQEVVPFLARLSNRLSTCHIEGDDLHIQRNVQKLKDTVKKLGESGEIKAIGELDLLFMSLRNACI
Regarding B1, the “Average Acanthosis” value in data set [1] (0.24 μg IL-TIF/day, 14 days) worked out at 2.2; in data set [1] (2.4 μg IL-TIF/day, 14 days) it was 2.4; in data set [1] (24 μg IL-TIF/day, 14 days) it was 3.0; with IL-TIF (pump 2.5 μg IL-TIF/day + 100 μL vehicle (3 injections)), 1.1; with IL-TIF (pump 5 μg IL-TIF/day + 100 μL vehicle (3 injections)) it was 2.0; in the data set with IL-TIF (pump 10 μg IL-TIF/day + 100 μL vehicle (3 injections)), 2.0. The “Measured Thickness” value in data set [1] (2.4 μg IL-TIF/day, 14 days) is recorded as 67.5 pixels. Moreover, the skin histology entry was “epidermal thickening” in data set [1] (2.4 and 24 μg/day); “epidermal thickening” with IL-TIF (IL-TIF at 2.5, 5, 10 μg/day). For the same molecule, the cell infiltrates entry in data set [1] (not observed in vehicle treated controls) is given as “mononuclear cell infiltrates in the epidermis”. In addition, the “% Cytotoxicity” value in the data set on K-562 cells (100 ng/ml) stood at 16.2%; in the data set on K-562 cells (300 ng/ml), 32%.
